Measured values from publication PMC10773654.

Target: human Interleukin-1 Receptor Associated Kinase 1 (IRAK1) protein, nanoluciferase BiMC construct (human) (UniProt P51617)
Assay: split reporter

UniProt P51617, sequence (P51617 whole entry): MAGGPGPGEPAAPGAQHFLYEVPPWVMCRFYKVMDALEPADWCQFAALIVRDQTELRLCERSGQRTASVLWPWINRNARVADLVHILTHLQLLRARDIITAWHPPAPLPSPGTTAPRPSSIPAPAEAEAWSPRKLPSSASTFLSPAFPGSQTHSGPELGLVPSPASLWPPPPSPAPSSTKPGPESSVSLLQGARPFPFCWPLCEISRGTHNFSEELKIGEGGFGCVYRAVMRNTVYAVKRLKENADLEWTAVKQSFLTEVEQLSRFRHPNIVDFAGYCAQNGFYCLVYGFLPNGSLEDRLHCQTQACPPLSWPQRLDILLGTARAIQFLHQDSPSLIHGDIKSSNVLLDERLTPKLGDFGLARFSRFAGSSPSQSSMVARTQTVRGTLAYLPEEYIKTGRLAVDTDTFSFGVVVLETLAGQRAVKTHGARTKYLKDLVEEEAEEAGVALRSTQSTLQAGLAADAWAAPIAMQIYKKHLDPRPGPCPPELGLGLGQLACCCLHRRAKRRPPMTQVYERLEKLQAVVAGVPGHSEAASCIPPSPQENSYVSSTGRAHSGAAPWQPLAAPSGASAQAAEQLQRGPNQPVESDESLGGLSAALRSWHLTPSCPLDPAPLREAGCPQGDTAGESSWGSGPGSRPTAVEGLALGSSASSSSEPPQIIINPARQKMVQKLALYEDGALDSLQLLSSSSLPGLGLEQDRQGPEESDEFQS

For “SINV CP truncation mutant ΔRI (RII and Protease domains) (domain or fragment)”, the fold BiMC of nanoluciferase relative to the full-length SINV CP protein was 2 fold.
